In patent publication US20240043528A1, “NANOBODY-OGA FUSIONS AND USES THEREOF” (President and Fellows of Harvard College, priority 2020, published 2024):
Entries after “also recorded” stand apart in the source; their conditions may differ.

Columns and labels:
myc-OGA(1-400) = molecular target: T1, myc-OGA(1-400) (human, UniProt O60502 1-400); assay: co-immunoprecipitation (anti-c-Myc / anti-HA magnetic beads) from HEK 293T lysates, immunoblot
T1 construct: also called N2; N fragment
T1 sequence: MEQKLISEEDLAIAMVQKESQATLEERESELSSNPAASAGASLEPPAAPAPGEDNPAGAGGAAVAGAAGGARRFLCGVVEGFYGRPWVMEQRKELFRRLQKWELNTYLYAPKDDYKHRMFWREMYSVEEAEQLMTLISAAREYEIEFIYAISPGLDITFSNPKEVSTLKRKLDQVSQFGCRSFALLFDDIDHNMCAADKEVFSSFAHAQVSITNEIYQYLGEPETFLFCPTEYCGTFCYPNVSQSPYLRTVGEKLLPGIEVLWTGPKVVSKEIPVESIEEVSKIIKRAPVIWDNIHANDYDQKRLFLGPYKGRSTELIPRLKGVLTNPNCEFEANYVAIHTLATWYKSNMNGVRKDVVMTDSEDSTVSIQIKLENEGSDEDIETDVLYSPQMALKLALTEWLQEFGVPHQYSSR
Procedure: The asterisk indicates IgG heavy chain from anti-c-Myc magnetic beads. […] In FIG. 9A and FIG. 9C, activities of fragments alone or pairs with/without nGFP were evaluated on GFP-Nup62, which was enriched by beads against EPEA tag and blotted with RL2 antibody to reveal O-GlcNAc modification level. D174N is a catalytically impaired mutation on OGA. Anti-myc and anti-HA blots detect expression of full-length (fl-OGA) or N-terminal fragment, and C-terminal fragment, respectively. WCL, whole cell lysates. The data in FIGS. 9A-9C are representative of at least two biological replicates.
For immunoprecipitation of proteins with anti-HA (Pierce, 88836) or anti-c-Myc (Pierce, 88842) magnetic beads, cell lysates with equal amounts of protein were diluted with 1×TBS-T buffer (25 mM Tris HCl pH 7.4, 150 mM NaCl, 0.05% Tween-20) and incubated with pre-washed magnetic beads at room temperature for 30 min with mixing, following the manufacturer's instructions. Anti-HA magnetic beads were washed three times with TBS-T buffer and once with ultrapure water. Anti-c-Myc magnetic beads were washed three times with 5×TBS-T buffer and once with ultrapure water. The enriched proteins were eluted with SDS sample buffer and subjected to SDS-PAGE.

GFP-Nup62 = assay: Deglycosylation of GFP-Nup62 co-expressed with OGA constructs (anti-EPEA enrichment, RL2 immunoblot); format: cell-based, human; settings: for deglycosidase activity on GFP-Nup62 of N fragment: N fragment paired with C1 (aa 414-916)
Procedure: HEK 293T cells were cultured in Dulbecco's Modified Eagle Medium (DMEM, Cat #11995073) supplemented with penicillin (50 μg/mL) and streptomycin (50 μg/mL) along with 10% (v/v) FBS. Transfections of all plasmids in this study were performed using TransIT-PRO® (Mirus Bio, Cat #MIR 5740) according to the manufacturer's instructions.
Glycoproteins Nup62, Sp1, JunB, c-Jun were subcloned into pcDNA3.1 vector with a GFP and a Flag-tag or a BC2 tag in the N-terminus and an EPEA tag in the C terminus respectively, unless otherwise noted. For all split OGA constructs with or without the fusion of nanobody GFP, N fragments were tagged with myc tag and C fragments were tagged with HA tag respectively. Human SP1 cDNA ORF plasmid (Cat #HG12024-G), human c-Fos cDNA ORF plasmid, and human OGT cDNA ORF cloned with a C-terminal His tag (Cat #HG11279-M) were purchased from Sino Biological. For subcloning, PCR fragments were amplified using Q5 High-Fidelity 2× Master Mix (New England BioLabs, Cat #M0492S). The vectors were double-digested and ligated to gel-purified PCR products by T4 ligation using T4 DNA ligase (New England BioLabs, Cat #M0202S) or by Gibson assembly using Gibson Assembly Master mix (New England BioLabs, Cat #E2611L). c-Fos was subcloned into a pcDNA3.1 vector with a 14-residue Ubc tag (amino acids: QADQEAKELARQIA (SEQ ID NO: 11)), Flag tag, and EPEA tag at the C terminus. All nanobody DNA fragments were synthesized by IDT.
After 36-48 h of transfection, cells were harvested and washed with PBS once. Cells were lysed with M-PER lysis buffer containing 1× protease inhibitor cocktail and 10 μM Thiamet-G unless otherwise noted. Protein concentrations were determined by the BCA assay kit (G-Biosciences, 786) on a multi-mode microplate reader FilterMax F3 (Molecular Devices LLC, Sunnyvale, CA).
For immunoprecipitation of proteins with the C-terminal EPEA tag, cell lysates with equal amounts of protein were diluted with PBS and incubated with C-tag affinity matrix (Thermo Scientific) for 1 h at room temperature, with end-to-end rotation, following the manufacturer's instructions. After washing three times with PBS buffer, the enriched proteins were eluted with SDS sample buffer and subjected to SDS-PAGE.
For immunoblotting analysis, proteins were transferred to a nitrocellulose membrane using iBlot (Thermo Scientific). Membranes were blocked with Tris buffered saline containing 0.1% Tween-20 and 5% BSA and incubated with the primary antibodies (1:1000 dilution) and the secondary antibodies (1:10,000 dilution) sequentially. Immunoblot images were captured by Azure Imager C600. Analysis of immunoblots was conducted with Fiji ImageJ. All IR fluorescence western blot images are converted into grayscale images by Fiji ImageJ. The unsaturated exposure of immunoblot images was used for quantification with the appropriate loading controls as standards. Statistical analysis of the data was performed with Prism 8, using data from at least three independent experiments.

HA-OGA(414-916), O60502 = molecular target: T2, HA-OGA(414-916), O60502
T2 chain: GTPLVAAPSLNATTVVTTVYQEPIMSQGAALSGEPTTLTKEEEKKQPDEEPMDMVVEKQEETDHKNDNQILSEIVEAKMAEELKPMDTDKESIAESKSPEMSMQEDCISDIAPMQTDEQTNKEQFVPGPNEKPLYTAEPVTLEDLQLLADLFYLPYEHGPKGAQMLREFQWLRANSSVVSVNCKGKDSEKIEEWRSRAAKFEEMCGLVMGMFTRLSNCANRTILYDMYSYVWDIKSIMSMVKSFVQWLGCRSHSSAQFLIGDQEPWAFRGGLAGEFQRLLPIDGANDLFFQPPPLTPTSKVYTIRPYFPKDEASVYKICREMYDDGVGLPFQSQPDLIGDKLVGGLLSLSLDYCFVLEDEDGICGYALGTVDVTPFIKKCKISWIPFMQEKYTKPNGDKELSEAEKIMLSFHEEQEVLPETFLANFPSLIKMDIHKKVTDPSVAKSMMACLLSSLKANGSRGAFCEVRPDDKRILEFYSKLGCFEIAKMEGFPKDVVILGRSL

B1: HA-OGA(554-706) (enzyme, human, UniProt O60502 554-706, looked up)
chain: TLEDLQLLADLFYLPYEHGPKGAQMLREFQWLRANSSVVSVNCKGKDSEKIEEWRSRAAKFEEMCGLVMGMFTRLSNCANRTILYDMYSYVWDIKSIMSMVKSFVQWLGCRSHSSAQFLIGDQEPWAFRGGLAGEFQRLLPIDGANDLFFQPP
notes: range 554-706; the legend prints C4; also called C4; not shown: N-terminal HA tag
- binding result (myc-OGA(1-400)): no binding

B2: OGA(cat): catalytic domain of OGA alone, residues 1-366, myc tag (protein, UniProt O60502 1-366, looked up, fragment)
chain: MVQKESQATLEERESELSSNPAASAGASLEPPAAPAPGEDNPAGAGGAAVAGAAGGARRFLCGVVEGFYGRPWVMEQRKELFRRLQKWELNTYLYAPKDDYKHRMFWREMYSVEEAEQLMTLISAAREYEIEFIYAISPGLDITFSNPKEVSTLKRKLDQVSQFGCRSFALLFDDIDHNMCAADKEVFSSFAHAQVSITNEIYQYLGEPETFLFCPTEYCGTFCYPNVSQSPYLRTVGEKLLPGIEVLWTGPKVVSKEIPVESIEEVSKIIKRAPVIWDNIHANDYDQKRLFLGPYKGRSTELIPRLKGVLTNPNCEFEANYVAIHTLATWYKSNMNGVRKDVVMTDSEDSTVSIQIKLENEGSDE
modifications: catalytic domain myc tag
notes: catalytic domain of OGA alone, residues 1-366, myc tag
- deglycosidase activity on GFP-Nup62 of N fragment (GFP-Nup62; HEK 293T cells): no activity was seen on GFP-Nup62
- deglycosidase activity / O-GlcNAc modification level on GFP-Nup62 (GFP-Nup62; co-expressed in HEK 293T cells): inactive
- deglycosidase activity on GFP-Nup62 after fusion of nGFP (GFP-Nup62; nGFP fused to a fragment, HEK 293T cells, listed as N3): could not be recovered; also recorded: unable to reconstitute OGA's activity with any C-fragments shown in this study even in the presence of nGFP

B3: myc-OGA(1-413) (protein)
chain: MVQKESQATLEERESELSSNPAASAGASLEPPAAPAPGEDNPAGAGGAAVAGAAGGARRFLCGVVEGFYGRPWVMEQRKELFRRLQKWELNTYLYAPKDDYKHRMFWREMYSVEEAEQLMTLISAAREYEIEFIYAISPGLDITFSNPKEVSTLKRKLDQVSQFGCRSFALLFDDIDHNMCAADKEVFSSFAHAQVSITNEIYQYLGEPETFLFCPTEYCGTFCYPNVSQSPYLRTVGEKLLPGIEVLWTGPKVVSKEIPVESIEEVSKIIKRAPVIWDNIHANDYDQKRLFLGPYKGRSTELIPRLKGVLTNPNCEFEANYVAIHTLATWYKSNMNGVRKDVVMTDSEDSTVSIQIKLENEGSDEDIETDVLYSPQMALKLALTEWLQEFGVPHQYSSRQVAHSGAKASVVD
- deglycosidase activity on GFP-Nup62 (O-GlcNAc RL2 immunoblot) (HA-OGA(414-916), O60502): The N- and C-terminal fragments can associate to reconstitute OGA enzymatic activity when co-expressed simultaneously in living cells

B4: N2: myc-OGA(1-400) N fragment (SEQ ID NO: 4) (protein)
chain: MEQKLISEEDLAIAMVQKESQATLEERESELSSNPAASAGASLEPPAAPAPGEDNPAGAGGAAVAGAAGGARRFLCGVVEGFYGRPWVMEQRKELFRRLQKWELNTYLYAPKDDYKHRMFWREMYSVEEAEQLMTLISAAREYEIEFIYAISPGLDITFSNPKEVSTLKRKLDQVSQFGCRSFALLFDDIDHNMCAADKEVFSSFAHAQVSITNEIYQYLGEPETFLFCPTEYCGTFCYPNVSQSPYLRTVGEKLLPGIEVLWTGPKVVSKEIPVESIEEVSKIIKRAPVIWDNIHANDYDQKRLFLGPYKGRSTELIPRLKGVLTNPNCEFEANYVAIHTLATWYKSNMNGVRKDVVMTDSEDSTVSIQIKLENEGSDEDIETDVLYSPQMALKLALTEWLQEFGVPHQYSSR
modifications: myc tag
- deglycosidase activity on GFP-Nup62 of N fragment (GFP-Nup62; HEK 293T cells): possessed deglycosylation capability when paired with C1
